Experimental data as given in patent US20240052047A1 (Pfizer, published 2024).

Biological target: human IL27 receptor (IL27RA/gp130 heterodimer) on human cells (human, UniProt Q6UWB1 33-636; P40189 23-918)
Experiment: cell-based or functional assay

human IL27 receptor (IL27RA/gp130 heterodimer) on human cells, sequence (Q6UWB1 33-636 limits assumed, chain 1 of 2): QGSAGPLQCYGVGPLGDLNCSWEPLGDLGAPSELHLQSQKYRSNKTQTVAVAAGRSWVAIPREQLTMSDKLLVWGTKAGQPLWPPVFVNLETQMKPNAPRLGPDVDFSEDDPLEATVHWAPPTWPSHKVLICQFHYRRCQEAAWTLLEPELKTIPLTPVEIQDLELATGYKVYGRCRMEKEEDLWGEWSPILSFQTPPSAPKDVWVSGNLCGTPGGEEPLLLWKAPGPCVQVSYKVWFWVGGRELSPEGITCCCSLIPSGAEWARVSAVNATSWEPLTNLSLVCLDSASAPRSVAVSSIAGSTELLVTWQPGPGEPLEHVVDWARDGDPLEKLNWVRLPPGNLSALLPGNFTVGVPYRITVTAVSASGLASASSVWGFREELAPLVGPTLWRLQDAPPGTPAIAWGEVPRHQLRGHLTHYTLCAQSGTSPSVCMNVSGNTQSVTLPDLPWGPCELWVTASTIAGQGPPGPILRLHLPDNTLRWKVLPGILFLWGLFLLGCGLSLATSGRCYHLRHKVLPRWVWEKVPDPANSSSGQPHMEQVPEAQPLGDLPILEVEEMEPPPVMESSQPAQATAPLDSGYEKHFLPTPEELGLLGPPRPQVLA
human IL27 receptor (IL27RA/gp130 heterodimer) on human cells, sequence (P40189 23-918 limits assumed, chain 2 of 2): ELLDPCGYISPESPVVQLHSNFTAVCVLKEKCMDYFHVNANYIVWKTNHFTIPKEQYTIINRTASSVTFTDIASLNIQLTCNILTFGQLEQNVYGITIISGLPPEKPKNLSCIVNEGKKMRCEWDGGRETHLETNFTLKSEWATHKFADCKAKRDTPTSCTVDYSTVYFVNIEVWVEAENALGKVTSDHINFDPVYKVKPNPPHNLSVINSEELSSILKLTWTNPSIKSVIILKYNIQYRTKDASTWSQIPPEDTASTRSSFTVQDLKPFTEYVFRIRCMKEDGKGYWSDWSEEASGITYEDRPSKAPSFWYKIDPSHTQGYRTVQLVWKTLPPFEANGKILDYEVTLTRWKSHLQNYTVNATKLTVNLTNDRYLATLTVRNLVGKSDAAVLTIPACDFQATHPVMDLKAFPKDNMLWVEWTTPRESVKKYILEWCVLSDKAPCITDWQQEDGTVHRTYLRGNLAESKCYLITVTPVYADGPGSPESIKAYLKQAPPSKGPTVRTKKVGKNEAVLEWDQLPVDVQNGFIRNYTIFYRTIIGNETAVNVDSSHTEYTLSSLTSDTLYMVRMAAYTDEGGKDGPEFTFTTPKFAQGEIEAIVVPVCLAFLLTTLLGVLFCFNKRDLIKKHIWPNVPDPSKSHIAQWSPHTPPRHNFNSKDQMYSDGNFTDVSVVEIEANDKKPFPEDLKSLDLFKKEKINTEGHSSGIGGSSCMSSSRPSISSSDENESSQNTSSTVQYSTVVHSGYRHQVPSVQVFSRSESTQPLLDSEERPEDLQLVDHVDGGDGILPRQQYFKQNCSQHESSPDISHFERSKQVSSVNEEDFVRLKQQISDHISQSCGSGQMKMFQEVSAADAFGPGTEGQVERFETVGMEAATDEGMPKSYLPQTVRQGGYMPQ

IDO1 in CD14+ monocytes EC50: 0.015 nM | PD-L1 in CD14+ monocytes EC50 (human whole blood): 0.006 nM | pSTAT1 in CD3+ T cells EC50 (human whole blood): 0.233 nM
B1: GBT-IL-27R-4933 (KiH-mFd format IL27RA/gp130 bispecific antibody) (bispecific antibody, human IgG1, kappa)
chain 1: DIQMTQSPSSLSASVGDRVTITCRASQSVSSSYLAWYQQKPGKAPKLLIYGTESRATGVPSRFSGSGSGTDFTLTISSLQPEDFATYYCQQYGGYPTFGGGTKVEIKRTVAAPSVFIFPPSDEQLKSGTASVVCLLNNFYPREAKVQWKVDNALQSGNSQESVTEQDSKDSTYSLSSTLTLSKADYEKHKVYACEVTHQGLSSPVTKSFNRGECDKTHTCPPCPAPEAAGAPSVFLFPPKPKDTLMISRTPEVTCVVVDVSHEDPEVKFNWYVDGVEVHNAKTKPREEQYNSTYRVVSVLTVLHQDWLNGKEYKCKVSNKALPAPIEKTISKAKGQPREPQVYTLPPCREEMTKNQVSLSCAVKGFYPSDIAVEWESNGQPENNYKTTPPVLDSDGSFFLVSKLTVDKSRWQQGNVFSCSVMHEALHNHYTQKSLSLSPGK
chain 2: QVQLVQSGAEVKKPGSSVKVSCKVSGGSISSYYWSWVRQAPGQGLEWIGRIYITGNTNYNPSLKDRVTMTVDTSTSTHYMELSSLRSEDTAVYYCAREGPKLGIFDYWGQGTLVTVSSASTKGPSVFPLAPSSKSTSGGTAALGCLVKDYFPEPVTVSWNSGALTSGVHTFPAVLQSSGLYSLSSVVTVPSSSLGTQTYICNVNHKPSNTKVDKKVEPKSC
heavy: EVQLVESGGGLVQPGGSLRLSCAASGFTFEYFGLQWVRQAPGKGLEWIGYTSSGGNYEYYEETLKGRFTISRDNAKNSLYLQMNSLRAEDTAVYYCARTKTGDYWGQGTLVTVSSASTKGPSVFPLAPSSKSTSGGTAALGCLVKDYFPEPVTVSWNSGALTSGVHTFPAVLQSSGLYSLSSVVTVPSSSLGTQTYICNVNHKPSNTKVDKKVEPKSCDKTHTCPPCPAPEAAGAPSVFLFPPKPKDTLMISRTPEVTCVVVDVSHEDPEVKFNWYVDGVEVHNAKTKPREEQYNSTYRVVSVLTVLHQDWLNGKEYKCKVSNKALPAPIEKTISKAKGQPREPQVCTLPPSREEMTKNQVSLWCLVKGFYPSDIAVEWESNGQPENNYKTTPPVLDSDGSFFLYSKLTVDKSRWQQGNVFSCSVMHEALHNHYTQKSLSLSPGK
light: DIQMTQSPSSLSASVGDRVTITCRASQDIGNSLTWYQQKPGKAPKRVIFGATGLAAGVPSRFSGSGSGTDFTLTISSLQPEDFATYYCLQSKQYPYTFGQGTKLEIKRTVAAPSVFIFPPSDEQLKSGTASVVCLLNNFYPREAKVQWKVDNALQSGNSQESVTEQDSKDSTYSLSSTLTLSKADYEKHKVYACEVTHQGLSSPVTKSFNRGEC
